In experiment [1] the target is T1, Folate receptor alpha (FOLR1) (human, UniProt P15328 25-234, limits assumed).
T1 construct: Antigen printed simply as FOLR1 for the panning, the clone ELISA and the SPR chip; also called human FOLR1; folate receptor-α
As to the kind of experiment: screening ELISA of panned phage library clones on FOLR1. For orientation: In an ELISA, binding on a coated surface is turned into a signal by an enzyme label.

Experiment [2] concerns the target T2, FOLR1-Fc (UniProt P15328 25-234, limits assumed).
T2 construct: also called FOLR1 (ELISA coating); not shown: Fc part
As to the kind of experiment: ELISA, FOLR1-Fc coated. As for the experimental part: (§1) For the purpose of comparing the binding affinities of the primarily selected clones with each other, ELISA was performed at different clone concentrations in the following manner. 25 μL of FOLR1 was added to each well of a 96-well plate at a concentration of 1 μg/mL, coated on the plate at room temperature for 1 hour, and then blocked with 180 μL of 3% skim milk at room temperature for 1 hour. During blocking, samples to be used as primary antibodies were prepared. As primary antibodies, samples selected by screening were used. The samples were diluted to a concentration of 0.1 to 100 nM (0, 0.1, 0.3, 1, 3, 10, 30, and 100 nM) and cold-stored until use. After blocking, 3% skim milk was removed, and 25 μL of the primary antibody was added to each well and allowed to react at room temperature for 1 hour or more. After completion of the reaction, each well was washed three times with PBS-Tween20 (0.1%) buffer. As a secondary antibody, HA-HRP was diluted 3,000-fold with 3% skim milk, and 25 μL of the dilution was added to each well and allowed to react at room temperature for 1 hour or more. After completion of the reaction, each well was washed three times with PBS-Tween20 (0.1%), and 25 μL of substrate TMB was added to each well to confirm color development. After about 5 minutes, 25 μL of 1 M H₂SO₄ was added to each well to stop the reaction, and the absorbance at a wavelength of 450 nm was measured. From the measurement results, the EC (Effector concentration) value was calculated using the GraphPad Prism 7 program.
(§2) The measured values are obtained in different experiments for comparison with the parent antibody.

The target in experiment [3] is T2, FOLR1-Fc. As to the kind of experiment: ELISA, FOLR1-Fc coated, antibody titrated. The protocol:
as §1, §2

The results in this text go back to patent US20210009685A1 (ALTEOGEN, published 2021).

Usually EC50 stands for the concentration giving half of the maximal effect. Higher therefore signals lower potency in that assay.

T1 sequence (P15328 25-234 limits assumed): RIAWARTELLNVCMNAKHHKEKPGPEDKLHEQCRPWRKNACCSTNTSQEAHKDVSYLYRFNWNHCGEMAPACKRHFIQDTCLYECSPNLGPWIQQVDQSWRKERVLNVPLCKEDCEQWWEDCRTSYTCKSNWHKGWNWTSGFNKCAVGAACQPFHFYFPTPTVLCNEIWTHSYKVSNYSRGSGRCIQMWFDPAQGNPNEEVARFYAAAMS
T2 sequence (P15328 25-234 limits assumed): as above

B1: CDR-L1 library clone C7 (Fab, V domains shown)
VH: EVQLVESGGGVVQPGRSLRLSCSASGFTFSGYGLSWVRQAPGKGLEWVAMISSGGSYTYYADSVKGRFAISRDNAKNTLFLQMDSLRPEDTGVYFCARHGDDPAWFAYWGQGTPVTVSS
VL: DIQLTQSPSSLSASVGDRVTITCSASSSLSSSYLHWYQQKPGKAPKPWIYGTSNLASGVPSRFSGSGSGTDYTFTISSLQPEDIATYYCQQWSSYPYMYTFGQGTKVEIK
notes: Fab clone from the phage library on the parent Fab template; Only the CDR-L1 is printed
For B1, the binding result in experiment [1] is on record as “binds”.

B2: CDR-L1 library clone H7 (Fab, V domains shown)
VH: EVQLVESGGGVVQPGRSLRLSCSASGFTFSGYGLSWVRQAPGKGLEWVAMISSGGSYTYYADSVKGRFAISRDNAKNTLFLQMDSLRPEDTGVYFCARHGDDPAWFAYWGQGTPVTVSS
VL: DIQLTQSPSSLSASVGDRVTITCSVSSSLSSSNLHWYQQKPGKAPKPWIYGTSNLASGVPSRFSGSGSGTDYTFTISSLQPEDIATYYCQQWSSYPYMYTFGQGTKVEIK
notes: as for B1
Take B2: in experiment [1], the binding result was “binds”.

B3: CDR-L1 library clone H1 (Fab, V domains shown)
VH: EVQLVESGGGVVQPGRSLRLSCSASGFTFSGYGLSWVRQAPGKGLEWVAMISSGGSYTYYADSVKGRFAISRDNAKNTLFLQMDSLRPEDTGVYFCARHGDDPAWFAYWGQGTPVTVSS
VL: DIQLTQSPSSLSASVGDRVTITCSASSSISSSYLHWYQQKPGKAPKPWIYGTSNLASGVPSRFSGSGSGTDYTFTISSLQPEDIATYYCQQWSSYPYMYTFGQGTKVEIK
notes: as for B1
In the case of B3, the binding result in experiment [1] is “binds”.

B4: CDR-L2 library clones E9, G6 (Fab, V domains shown)
VH: EVQLVESGGGVVQPGRSLRLSCSASGFTFSGYGLSWVRQAPGKGLEWVAMISSGGSYTYYADSVKGRFAISRDNAKNTLFLQMDSLRPEDTGVYFCARHGDDPAWFAYWGQGTPVTVSS
VL: DIQLTQSPSSLSASVGDRVTITCSVSSSISSNNLHWYQQKPGKAPKPWIYGASSLATGVPSRFSGSGSGTDYTFTISSLQPEDIATYYCQQWSSYPYMYTFGQGTKVEIK
notes: Fab clones from the phage library on the parent Fab template; Only the CDR-L2 is printed
Turning to B4, the binding result in experiment [1] is listed as “binds”.

B5: Modified antibody vAb4 (antibody, V domains shown)
VH: EVQLVESGGGVVQPGRSLRLSCSASGFTFSGYGLSWVRQAPGKGLEWVAMISSGGSYTYYADSVKGRFAISRDNAKNTLFLQMDSLRPEDTGVYFCARHGDDPAWFAYWGQGTPVTVSS
VL: DIQLTQSPSSLSASVGDRVTITCSVSSSISSNNLHWYQQKPGKAPKPWIYGTSSRASGVPSRFSGSGSGTDYTFTISSLQPEDIATYYCQQWSSYPYMYTFGQGTKVEIK
notes: Carries modified CDR-L2
Take B5: the “Relative Potency” value with FOLR1-Fc [2] is 1.94 fold against parent antibody. Moreover, a half-maximal effect in the experiment with FOLR1-Fc [3] (EC50) was put at 1.59 ng/mL.

B6: CDR-L1 library clone D7 (Fab, V domains shown)
VH: EVQLVESGGGVVQPGRSLRLSCSASGFTFSGYGLSWVRQAPGKGLEWVAMISSGGSYTYYADSVKGRFAISRDNAKNTLFLQMDSLRPEDTGVYFCARHGDDPAWFAYWGQGTPVTVSS
VL: DIQLTQSPSSLSASVGDRVTITCRASSGLSSNNLHWYQQKPGKAPKPWIYGTSNLASGVPSRFSGSGSGTDYTFTISSLQPEDIATYYCQQWSSYPYMYTFGQGTKVEIK
notes: as for B1
B6: in experiment [1], the binding result is on record as “binds”.

B7: CDR-L2 library clone C10 (Fab, V domains shown)
VH: EVQLVESGGGVVQPGRSLRLSCSASGFTFSGYGLSWVRQAPGKGLEWVAMISSGGSYTYYADSVKGRFAISRDNAKNTLFLQMDSLRPEDTGVYFCARHGDDPAWFAYWGQGTPVTVSS
VL: DIQLTQSPSSLSASVGDRVTITCSVSSSISSNNLHWYQQKPGKAPKPWIYATSSLATGVPSRFSGSGSGTDYTFTISSLQPEDIATYYCQQWSSYPYMYTFGQGTKVEIK
notes: Fab clone from the phage library on the parent Fab template; Only the CDR-L2 is printed
B7: in experiment [1], the binding result is recorded as “binds”.

B8: Modified antibody vAb2 (antibody, V domains shown)
VH: EVQLVESGGGVVQPGRSLRLSCSASGFTFSGYGLSWVRQAPGKGLEWVAMISSGGSYTYYADSVKGRFAISRDNAKNTLFLQMDSLRPEDTGVYFCARHGDDPAWFAYWGQGTPVTVSS
VL: DIQLTQSPSSLSASVGDRVTITCSASSGLSSSYLHWYQQKPGKAPKPWIYGTSSRASGVPSRFSGSGSGTDYTFTISSLQPEDIATYYCQQWSSYPYMYTFGQGTKVEIK
notes: Carries modified CDR-L1 and CDR-L2
As for B8, the “Relative Potency” value with FOLR1-Fc [2] was 3.04 fold against parent antibody. Besides, the midpoint of the response with FOLR1-Fc [3], the EC50, lay at 3.94 ng/mL.

B9: CDR-L1 library clone F3 (Fab, V domains shown)
VH: EVQLVESGGGVVQPGRSLRLSCSASGFTFSGYGLSWVRQAPGKGLEWVAMISSGGSYTYYADSVKGRFAISRDNAKNTLFLQMDSLRPEDTGVYFCARHGDDPAWFAYWGQGTPVTVSS
VL: DIQLTQSPSSLSASVGDRVTITCRASSGVSSNNLHWYQQKPGKAPKPWIYGTSNLASGVPSRFSGSGSGTDYTFTISSLQPEDIATYYCQQWSSYPYMYTFGQGTKVEIK
notes: as for B1
For the molecule B9, in experiment [1], the binding result is “binds”.

B10: CDR-L2 library clone H2 (Fab, V domains shown)
VH: EVQLVESGGGVVQPGRSLRLSCSASGFTFSGYGLSWVRQAPGKGLEWVAMISSGGSYTYYADSVKGRFAISRDNAKNTLFLQMDSLRPEDTGVYFCARHGDDPAWFAYWGQGTPVTVSS
VL: DIQLTQSPSSLSASVGDRVTITCSVSSSISSNNLHWYQQKPGKAPKPWIYTASSRASGVPSRFSGSGSGTDYTFTISSLQPEDIATYYCQQWSSYPYMYTFGQGTKVEIK
notes: as for B7
Regarding B10, in experiment [1], the binding result is “binds”.

B11: Modified antibody vAb5 (antibody, V domains shown)
VH: EVQLVESGGGVVQPGRSLRLSCSASGFTFSGYGLSWVRQAPGKGLEWVAMISSGGSYTYYADSVKGRFAISRDNAKNTLFLQMDSLRPEDTGVYFCARHGDDVAWFAYWGQGTPVTVSS
VL: DIQLTQSPSSLSASVGDRVTITCSVSSSISSNNLHWYQQKPGKAPKPWIYGTSNLASGVPSRFSGSGSGTDYTFTISSLQPEDIATYYCQQWSSYPYMYTFGQGTKVEIK
notes: Carries modified CDR-H3
Regarding B11, the “Relative Potency” value with FOLR1-Fc [2] was 1.42 fold against parent antibody. Also, the midpoint of the response with FOLR1-Fc [3], the EC50, lay at 2.17 ng/mL.

B12: CDR-L2 library clone G3 (Fab, V domains shown)
VH: EVQLVESGGGVVQPGRSLRLSCSASGFTFSGYGLSWVRQAPGKGLEWVAMISSGGSYTYYADSVKGRFAISRDNAKNTLFLQMDSLRPEDTGVYFCARHGDDPAWFAYWGQGTPVTVSS
VL: DIQLTQSPSSLSASVGDRVTITCSVSSSISSNNLHWYQQKPGKAPKPWIYATSNLASGVPSRFSGSGSGTDYTFTISSLQPEDIATYYCQQWSSYPYMYTFGQGTKVEIK
notes: as for B7
With B12, the binding result in experiment [1] was “binds”.

B13: CDR-L2 library clone C3 (Fab, V domains shown)
VH: EVQLVESGGGVVQPGRSLRLSCSASGFTFSGYGLSWVRQAPGKGLEWVAMISSGGSYTYYADSVKGRFAISRDNAKNTLFLQMDSLRPEDTGVYFCARHGDDPAWFAYWGQGTPVTVSS
VL: DIQLTQSPSSLSASVGDRVTITCSVSSSISSNNLHWYQQKPGKAPKPWIYATSNRESGVPSRFSGSGSGTDYTFTISSLQPEDIATYYCQQWSSYPYMYTFGQGTKVEIK
notes: as for B7
Turning to B13, in experiment [1], the binding result is reported as “binds”.

B14: CDR-L2 library clone B1 (Fab, V domains shown)
VH: EVQLVESGGGVVQPGRSLRLSCSASGFTFSGYGLSWVRQAPGKGLEWVAMISSGGSYTYYADSVKGRFAISRDNAKNTLFLQMDSLRPEDTGVYFCARHGDDPAWFAYWGQGTPVTVSS
VL: DIQLTQSPSSLSASVGDRVTITCSVSSSISSNNLHWYQQKPGKAPKPWIYATSSRATGVPSRFSGSGSGTDYTFTISSLQPEDIATYYCQQWSSYPYMYTFGQGTKVEIK
notes: as for B7
Consider B14, for which the binding result in experiment [1] is “binds”.

B15: Modified antibody vAb3 (antibody, V domains shown)
VH: EVQLVESGGGVVQPGRSLRLSCSASGFTFSGYGLSWVRQAPGKGLEWVAMISSGGSYTYYADSVKGRFAISRDNAKNTLFLQMDSLRPEDTGVYFCARHGDDPAWFAYWGQGTPVTVSS
VL: DIQLTQSPSSLSASVGDRVTITCSASSGLSSSYLHWYQQKPGKAPKPWIYGTSNLASGVPSRFSGSGSGTDYTFTISSLQPEDIATYYCQQWSSYPYMYTFGQGTKVEIK
notes: Carries modified CDR-L1
For the molecule B15, the “Relative Potency” value in the experiment with FOLR1-Fc [2] is 3.99 fold against parent antibody. Besides, the EC50 with FOLR1-Fc [3] amounted to 0.77 ng/mL.

B16: CDR-L1 library clone D5 (Fab, V domains shown)
VH: EVQLVESGGGVVQPGRSLRLSCSASGFTFSGYGLSWVRQAPGKGLEWVAMISSGGSYTYYADSVKGRFAISRDNAKNTLFLQMDSLRPEDTGVYFCARHGDDPAWFAYWGQGTPVTVSS
VL: DIQLTQSPSSLSASVGDRVTITCRVSSGISSNNLHWYQQKPGKAPKPWIYGTSNLASGVPSRFSGSGSGTDYTFTISSLQPEDIATYYCQQWSSYPYMYTFGQGTKVEIK
notes: as for B1
Consider B16, for which the binding result in experiment [1] is on record as “binds”.
